This is an account of results in paper PMC9022034.

The experiment has as its target T1, CBM3a (family IIIa carbohydrate binding module) of the cellulosomal scaffolding protein CipC (Clostridium cellulolyticum (Ruminiclostridium cellulolyticum) H10).
T1 chain: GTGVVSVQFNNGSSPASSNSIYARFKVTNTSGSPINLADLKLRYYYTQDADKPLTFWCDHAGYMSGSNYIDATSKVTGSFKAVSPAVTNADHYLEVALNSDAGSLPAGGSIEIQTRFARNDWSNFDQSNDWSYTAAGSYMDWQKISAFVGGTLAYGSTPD
As to the kind of experiment: ITC. The conditions noted are these: domain or fragment; C-terminal His6 tag omitted. Limits not printed and no X2 feature in the entry: estimated from the CipC module order (CBM3a-X2-Coh1..7-X2-Coh8) and the ~95-aa X2 size (1EHX is the X2-N homologue). Both edges are uncertain by about 10 residues; the segment should contain the NGNT motif. Methods sometimes call this protein X2-N, but Results state X2-C was used in vitro. / C-terminal His6 tag omitted; modification not given.

B1: X2-C module of the cellulosomal scaffolding protein CipC (protein)
chain: VGDVTPVNPTITPSTASFDKYVPANVNVTLTPNGNTFKGITGLTSGTDFTVSNNVVTISKSYLSTLAVGSKTLTFDFGVTNNPVLTLTITDSTPVV
For the molecule B1, the Ka is 80200 M⁻¹.
